These results are taken from paper PMC10269531, “NH125 Sensitizes Staphylococcus aureus to Cell Wall-Targeting Antibiotics through the Inhibition of the VraS Sensor Histidine Kinase” (Microbiology Spectrum, 2023).

For series [1], the target named is T1, VraS sensor histidine kinase (GST-VraS) (Staphylococcus aureus, UniProt Q99SZ7).
T1 construct: GST-tagged intracellular domain, amino acids 85 to 347 (DHp and CAT)
Kind of series: PK/LDH-coupled ATPase (autophosphorylation) assay, NADH absorbance at […] nm; Michaelis-Menten inhibition kinetics. It counts as biochemical.

In series [2] the test system is Nc1ncnc2c1ncn2[C@@H]1O[C@H](COP(=O)(O)OP(=O)(O)OP(=O)(O)O)[C@@H](O)[C@H]1O. Kind of series: PK/LDH-coupled ATPase assay, Michaelis-Menten kinetics (KM of ATP). It counts as biochemical, Staphylococcus aureus. To be noted: Mg2+ catalytic domain (CAT) that binds ATP.

In general, IC50 refers to the midpoint of a concentration-inhibition curve. The term Km denotes the concentration of substrate that gives half-maximal velocity. Broadly, the Vmax is the top rate of the reaction or transport when substrate is in excess. By kcat is commonly meant the number of substrate molecules converted per active site and unit of time at saturation. The term kcat/Km denotes the second-order rate constant that governs catalysis at low substrate concentration.

T1 sequence (Q99SZ7 85-347): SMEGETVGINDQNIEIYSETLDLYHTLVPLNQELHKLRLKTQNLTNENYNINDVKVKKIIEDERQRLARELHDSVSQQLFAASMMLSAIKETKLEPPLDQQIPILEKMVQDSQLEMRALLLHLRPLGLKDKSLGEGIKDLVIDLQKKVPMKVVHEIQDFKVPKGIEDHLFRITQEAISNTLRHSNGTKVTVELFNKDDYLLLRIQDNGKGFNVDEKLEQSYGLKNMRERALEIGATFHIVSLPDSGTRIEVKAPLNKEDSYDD

Compound `CCCCCCCCCCCCCCCC[n+]1ccn(Cc2ccccc2)c1C` [NH125] came in with an IC50 in series [1] of 41 ± 5 µM.

Turning to “VraS sensor histidine kinase (GST-VraS) (Staphylococcus aureus subsp. aureus N315)”, in series [2], the Km is 6.7 ± 1.6 µM, the Vmax is 0.000108 µmol/min, the kcat was found to be 0.0169 ± 0.0056 s⁻¹ and the kcat/Km was 2600 ± 600 M⁻¹ s⁻¹.
